This is an account of results in patent publication US20020141999A1 (IMMUNEX, published 2002).

The target in assay [1] is T1, murine K12, full length, on transfected cells (mouse, UniProt Q9JL59 29-212).
T1 construct: also called mouse K12; murine homologue of K12
T1 sequence: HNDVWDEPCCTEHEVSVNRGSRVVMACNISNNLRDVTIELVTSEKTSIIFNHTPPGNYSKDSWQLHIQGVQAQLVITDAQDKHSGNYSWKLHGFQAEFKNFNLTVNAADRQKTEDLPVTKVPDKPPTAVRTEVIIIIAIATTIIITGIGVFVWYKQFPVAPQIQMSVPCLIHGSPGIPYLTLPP
Kind of assay: Fc fusion binding to transfected cells, detected with 125I anti-human Fc.

Assay [2] has as its target T2, human CD7, full length, on cells (human, UniProt P09564 26-240).
T2 construct: On transfected COS-1 or CV-1/EBNA cells, and endogenous on Jurkat, KG-1 and NK cells; also called HuCD7
T2 sequence: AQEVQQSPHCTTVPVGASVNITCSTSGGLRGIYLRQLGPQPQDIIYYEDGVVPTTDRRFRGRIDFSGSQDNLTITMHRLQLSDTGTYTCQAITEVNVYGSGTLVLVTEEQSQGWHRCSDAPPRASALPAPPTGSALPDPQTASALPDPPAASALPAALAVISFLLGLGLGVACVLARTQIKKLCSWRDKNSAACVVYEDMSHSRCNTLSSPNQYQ
Kind of assay: preliminary cell binding experiments on Jurkat and KG-1 cells.

The target in assay [3] is T3, murine CD7, full length, on cells (mouse, UniProt P50283 24-210).
T3 construct: On transfected COS-1 cells; For the proliferation read-out it is endogenous on BALB/c lymph node cells; also called MuCD7; mouse CD7
T3 chain: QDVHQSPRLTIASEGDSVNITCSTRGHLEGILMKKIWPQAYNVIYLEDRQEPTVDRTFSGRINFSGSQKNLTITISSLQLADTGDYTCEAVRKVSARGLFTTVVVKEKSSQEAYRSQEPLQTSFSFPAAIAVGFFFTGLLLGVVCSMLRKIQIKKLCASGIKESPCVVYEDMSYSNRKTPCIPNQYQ
Kind of assay: HuK12-Fc on transfected COS-1 cells, 125I anti-human Fc, phosphorimager. As to the method:
COS-1 cells were transfected with an expression vector encoding full length HuCD7 (human CD7), HuCD7-TR (human CD7 containing an internal deletion of the 36 amino acid tandem repeat), MuCD7 and vector only cDNA using DEAE-Dextran. However, any of a large number of expression vectors that are commercially available from numerous companies (e.g., Clontech Inc., Palo Alto, Calif.) could also be used to express the desired cDNAs. Two days post transfection the cells were assayed for the capacity to bind HuK12-Fc as previously described for other Fc fusion proteins (Lyman et al.,1993, Cell 75:1157-1167) with the following modifications. The binding media (RPMI 1640, 1%FBS, 0.02% NaAzide, 20 mM HEPES, pH7.2) was modified to include […] MnCl₂. In some experiments, the transfected cells were incubated with zero, 20 ug/ml or 2 mg/ml of Con A in BM/MM prior to binding with the Fc proteins. Following incubation for 30 minutes at room temperature and the continued presence of Con A, 1 ug/ml of either HuK12-Fc or MuK12-Fc was then added to the appropriate slides. Binding of the Fc protein was detected with [¹²⁵I] mouse anti-Human Fc antibody as previously described (Lyman, 1993). After binding the iodinated antibody, the cells were washed and then the radioactivity was quantitated by Storm Phosphorimager. […]

The target of assay [4] is T2, human CD7, full length, on cells. As to the kind of experiment: Fc fusion binding to transfected cells (Example 5).
Assay [5] addresses T4, human K12, full length, on transfected cells (human, UniProt Q8WVN6 29-248).
T4 construct: also called SECTM1
T4 sequence: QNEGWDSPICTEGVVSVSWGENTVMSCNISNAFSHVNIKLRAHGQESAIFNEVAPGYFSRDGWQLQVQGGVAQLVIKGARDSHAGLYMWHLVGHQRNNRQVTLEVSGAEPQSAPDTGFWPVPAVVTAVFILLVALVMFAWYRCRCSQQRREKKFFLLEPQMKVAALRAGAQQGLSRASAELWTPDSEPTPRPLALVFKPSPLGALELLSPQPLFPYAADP
As to the kind of experiment: Fc fusion binding to transfected cells, detected with 125I anti-human Fc.

B1: human CD7-Fc fusion protein (Fc fusion)
chain: AQEVQQSPHCTTVPVGASVNITCSTSGGLRGIYLRQLGPQPQDIIYYEDGVVPTTDRRFRGRIDFSGSQDNLTITMHRLQLSDTGTYTCQAITEVNVYGSGTLVLVTEEQSQGWHRCSDAPPRASALPAPPTGSALPDPQTASALPDPPAASALP
notes: not shown: Fc portion of the CD7-Fc fusion is not described
For the molecule B1, the binding result in assay [1] is listed as “no binding”.

B2: human K12-Fc fusion protein (extracellular domain of human K12 fused to the Fc portion of human IgG1) (Fc fusion)
chain: QNEGWDSPICTEGVVSVSWGENTVMSCNISNAFSHVNIKLRAHGQESAIFNEVAPGYFSRDGWQLQVQGGVAQLVIKGARDSHAGLYMWHLVGHQRNNRQVTLEVSGAEPQSAPDTG
notes: Exists as a dimer in solution; No linker or junction is described; also called HuK12-Fc; HuK12Fc; not shown: Fc portion of human IgG1, as described in U.S. Pat. No. 5,457,035
B2 had a Ka in assay [2] of approximately 1e+08 M⁻¹. In addition, the “fold less binding than to full length HuCD7” value in assay [3] was approximately 4 fold.

B3: mouse K12-Fc fusion protein (extracellular domain of murine K12 fused to the Fc portion of human IgG1) (Fc fusion)
chain: HNDVWDEPCCTEHEVSVNRGSRVVMACNISNNLRDVTIELVTSEKTSIIFNHTPPGNYSKDSWQLHIQGVQAQLVITDAQDKHSGNYSWKLHGFQAEFKNFNLTVNAADRQKTEDLPVTKVPDKPPTAVRTE
notes: Exists as a dimer in solution; also called MuK12-Fc; not shown: Fc portion of human IgG1, as described in U.S. Pat. No. 5,457,035
For B3, the binding result in assay [4] is given as “no binding”.

B4: murine CD7-Fc fusion protein (Fc fusion)
chain: QDVHQSPRLTIASEGDSVNITCSTRGHLEGILMKKIWPQAYNVIYLEDRQEPTVDRTFSGRINFSGSQKNLTITISSLQLADTGDYTCEAVRKVSARGLFTTVVVKEKSSQEAYRSQEPLQTSFSFP
notes: also called mouse CD7-Fc; not shown: Fc portion of the CD7-Fc fusion is not described
For B4, the binding result in assay [5] is recorded as “no binding”.
